Measured values from US20260234667A1.

Biological target: human CXCR3 isoform 1 (human) (UniProt P49682)
Test: cell-based or functional assay

Chain of UniProt P49682 (P49682 whole entry, canonical isoform): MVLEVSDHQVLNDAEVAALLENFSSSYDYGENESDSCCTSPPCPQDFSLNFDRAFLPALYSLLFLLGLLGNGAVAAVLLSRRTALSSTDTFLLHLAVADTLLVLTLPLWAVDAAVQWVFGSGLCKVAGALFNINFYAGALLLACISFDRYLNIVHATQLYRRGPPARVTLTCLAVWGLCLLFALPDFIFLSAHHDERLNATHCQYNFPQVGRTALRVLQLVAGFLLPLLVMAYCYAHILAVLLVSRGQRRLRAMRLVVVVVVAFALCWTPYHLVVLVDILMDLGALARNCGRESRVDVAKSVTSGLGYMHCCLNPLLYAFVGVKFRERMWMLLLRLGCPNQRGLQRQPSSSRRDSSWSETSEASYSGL

B1: ITAC (CXCL11) (ligand, UniProt O14625 22-94, looked up, species assumed)
C-X-C motif chemokine 11: FPMFKRGRCLCIGPGVKAVKVADIEKASIMYPSNNCDKIEVIITLKENKGQRCLNPKSKQARLIIKKVERKNF
  migration of B cells to 100 ng/ml ITAC (CXCL11), fold increase against control cells: 10 fold
  migration of CD4 cells to 100 ng/ml ITAC (CXCL11), fold increase against control cells: > 4 fold
  migration of CD8 cells to 100 ng/ml ITAC (CXCL11), fold increase against control cells: 2.5 fold
